Four substances from publication PMC6857588 can be followed below.

By Kd is commonly meant the free concentration of one partner at which half of the binding sites on the other are occupied at equilibrium, for simple one-to-one binding.

This assay concerns the target filamentous actin (F-actin) (not stated (human platelet or rabbit muscle actin)) (UniProt P68135). The assay can be described thus: co-sedimentation; 0.5 µM NMY-2S1 incubated with different amounts of actin, 150,000 g for 1.5 h at room temperature; percent of NMY-2 S1 in the pellet fitted with a one-site specific binding model.

“wild-type NMY-2S1 (NMY-2 S1 fragment bound to MLC-4 and MLC-5) (from UniProt G5EBY3 1-874; Q09510 1-172; Q9XVI9 1-142) (complex)” showed a Kd of 660 nM.

Substance “NMY-2(S251A)S1 (NMY-2 S1 fragment S251A bound to MLC-4 and MLC-5) (from UniProt G5EBY3 1-874; Q09510 1-172; Q9XVI9 1-142) (complex)” gave a Kd of 62 nM.

“NMY-2(S250A)S1 (NMY-2 S1 fragment S250A bound to MLC-4 and MLC-5) (from UniProt G5EBY3 1-874; Q09510 1-172; Q9XVI9 1-142) (complex)” displayed an equilibrium dissociation constant (Kd) of 660 nM.

Substance “NMY-2(R252A)S1 (NMY-2 S1 fragment R252A bound to MLC-4 and MLC-5) (from UniProt G5EBY3 1-874; Q09510 1-172; Q9XVI9 1-142) (complex)” registered a Kd of 2460 nM.
